Laboratory results as given in the DeepSol protein solubility set.

assay: soluble on expression in E. coli; label from the status in PepcDB or PDB records

Row | Sequence | soluble on expression in E. coli
1 | MNEQAILQSAEAWVKKQLMDEYSGHDWYHIRRVTLMAKAIGEQEKVDVFVVQIAALFHDLIDDKLVDDPETAKQQLIDWMEAAGVPSQKIDHTMDIINTISFKGGHGQSLATREAMVVQDADRLDALGAIGIARTFAYSGNKGQPIYDPELPIRETMTVEEYRHGKSTAINHFYEKLFKLKDLMNTETGKQLAKERHVFMEQFIERFLSEWNGDMLEHHHHHH | soluble
2 | MGSDKIHHHHHHMNIERADFVDRVKIFVKAGDGGNGCVSFRREKYVPKGGPDGGDGGNGGFVFLRANPSVSTLIEFVNKRKFMAENGKHGMGKKMKGRNGKDLFIDVPVGTVVKDAVTGEVIADLNEPGKIVCVARGGRGGRGNAHFATSIKQAPLIAERGEKGESRWLELELKILADVGLVGYPNVGKSSLISRISNARPKIANYPFTTLIPNLGVVKYDDFSFVVADIPGLIEGASEGVGLGNVFLRHVERCYLIAHVIDVSGYEREDPVRDYFVIREEMKKYSPFLLEKPEIVVANKIDLIGKEELEKILKRLRDATNREVIPVSAVTGEGIDLLVSKLASIVREMKVEKPERKEEKFVKPSPVWRRLPEKFHLEVVKEDEGYWVVEGENLRVWIERFDLNQRDARLMLLQVLEKNGLNNKLKEAGVKEGDVVRIGDFEFEYRE | not soluble
3 | RTHSGEKPYECYICHARFTQSGTMKMHILQKHTENVAKFHCPHCDTVIARKSDLGVHLRKQHSY | soluble
4 | MGSDKIHHHHHHMSKSLFPFRFLLPVPVDHYENFPVASWLLPGRLREPVSAIYRFARSADDLADEGDAPPRARLQELARYHSELDRIERGEIPDDPIFGRLAAAIRAHALPLTPFRDLLSAFAQDIEKTRYASFGEVMDYCRRSANPVGRLMLHLYGDHDPRHQAYSDAICSSLQLINFLQDVAIDYAKGRIYLPQDELAAHHVSEAQIAAGDAGGLWRMMMHKQIERARKLLQAGAPLGRALDGRIGLELRVTIRGGETILRKLHADPGCVFGARPVLGKRDWIVMLARSVL | not soluble
5 | MRDQMLPSIILFDGVCNFCNYWVQFIIKRDPQATFQFASLQSEVGQELLEKHSIDRSTDSVVLIMEGQAFVCSDAVLKIVAQLDSPIRWLKWAVIFPRFLRDFIYRIVARNRYKWFGKRDECQIPTKEQRSRFLLEHHHHHH | soluble
6 | MKSPIVSANLVTRDNDKIAEKTGNIYESLVVISRRARQISIKIKEELNSKLAEFASKEDNLEEIFENREQIEISKYYERMPKPSTLATEEFLEDKVMFRHTGIASATPRKEDEK | not soluble
7 | MSVGKPLPHDSARAHVTGQARYLDDLPCPANTLHLAFGLSTEASAAITGLDLEPVRESPGVIAVFTAADLPHDNDASPAPSPEPVLATGEVHFVGQPIFLVAATSHRAARIAARKARITYAPRPAILTLDQALAADSRFEGGPVIWARGDVETALAGAAHLAEGCFEIGGQEHFYLEGQAALALPAEGGVVIHCSSQHPSEIQHKVAHALGLAFHDVRVEMRRMGGGFGGKESQGNHLAIACAVAARATGRPCKMRYDRDDDMVITGKRHDFRIRYRIGADASGKLLGADFVHLARCGWSADLSLPVCDRAMLHADGSYFVPALRIESHRLRTNTQSNTAFRGFGGPQGALGMERAIEHLARGMGRDPAELRALNFYDPPERGGLSAPPSPPEPIATKKTQTTHYGQEVADCVLGELVTRLQKSANFTTRRAEIAAWNSTNRTLARGIALSPVKFGISFTLTHLNQAGALVQIYTDGSVALNHGGTEMGQGLHAKMVQVAAAVLGIDPVQVRITATDTSKVPNTSATAASSGADMNGMAVKDACETLRGRLAGFVAAREGCAARDVIFDAGQVQASGKSWRFAEIVAAAYMARISLSATGFYATPKLSWDRLRGQGRPFLYFAYGAAITEVVIDRLTGENRILRTDILHDAGASLNPALDIGQIEGAYVQGAGWLTTEELVWDHCGRLMTHAPSTYKIPAFSDRPRIFNVALWDQPNREETIFRSKAVGEPPFLLGISAFLALHDACAACGPHWPDLQAPATPEAVLAAVRRAEGRA | soluble
8 | MLFEDEVGETPGGESYATVVNSRLSELLKRDRIVALLTNPDEVELIEQIECINYKPSISGTGGFVFFVHGDRKTYKILDTDRLALWEDTAATKDVRMSEETRLRFDQNNHLQVSKAKLALDHNGFTLYENTATLARCRRHNKKVVYVLRNGHQYGHGLIMYQYVKPGAHPDPLHQTVQLMTDAWFDILPPDIRMVVYYLLKYNHADETARIVHREHSVYLSRMKAGRPPPPSTSACTS | not soluble
9 | MTITDKNRLTGEADPRRTSLYGPPSMDALTERALHLARAGRALLGIVGEPGAGKSTFAEQLRARLEKERPGLAVTVSMDGFHLAQKVIEARGQAADKGTIDTFDADGFVALLRRTRAETGDTENTESTVWWPEFDRDLEDPVAGSIEVAPHHRLVIVDGNFLLSAQEPWRQVKGLLDETWFLDALPEPRRERLTRRYISYGFTPEAARAKTLGVDEDTSALIRSTVSRADLVIGEARESGGVSDC | not soluble
10 | MPSTVEKMETEEYGKPDPNRLTTKLFAEYDALHEKQQNGMDEKKTMELLEPSEVFEIYSPATMEIISIAKEEGDILSDQSLKFLNEALRYTVVPRGYSPQGVDARTTVKNVATITKDLVDIGKIVFEKFPKYLQFFGPFGSLLKDILDMTKPEKKDPVLEELGNLKSQLESLSQKMVVQFDELKAFMVEKDFYNNYAHKASLLFDYMIDCVATIDTKTKERFEECYNEIKPERYVRDMLIKLESDVTNPLKVSMAGDELTSKATFQKWKDVLNSTLSQFLLLECFAMGFLHPKDESDSKKIIEKITYYTTLVEQWEKHYLNDRPYWPKLKKYVERIQGEGSFDKDEDMATELKKGLDSILTEDNFYLYVFEKNVHYEIHVVKPEMVFVSTNRGKFSVIISRAFEHSEYTCGQYWKKLDNIMYRRIERSIWYALETHMKEFVQWAVASYAKNDFKGCSYFLAFSSRNVAVRWTRKHGAEKGPGFINWDGQLTVFNVTTGTWNMLYMVGE | not soluble
11 | FISRFAPDQPRKGADILVEALERQGVETVFAYPGGASMEIHQALTRSSSIRNVLPRHEQGGVFAAEGYARSSGKPGICIATSGPGATNLVSGLADALLDSVPLVAITGQVPRRMIGTDAFQETPIVEVTRSITKHNYLVMDVEDIPRIIEEAFFLATSGRPGPVLVDVPKDIQQQLAIPNWEQAMRLPGYMSRMPKPPEDSHLEQIVRLISESKKPVLYVGGGCLNSSDELGRFVELTGIPVATTLMGLGSYPCDDELSLHMLGMHGTVYANYAVEHSDLLLAFGVRFDDRVTGKLEAFASRAKIVHIDIDSAEIGKNKTPHVSVCGDVKLALQGMNKVLENRAEELKLDFGVWRNELNVQKQKFPLSFKTFGEAIPPQYAIKVLDELTDGKAIISTGVGQHQMWAAQFYNYKKPRQWLSSGGLGAMGFGLPAAIGASVANPDAIVVDIDGDGSFIMNVQELATIRVENLPVKVLLLNNQHLGMVMQWEDRFYKANRAHTFLGDPAQEDEIFPNMLLFAAACGIPAARVTKKADLREAIQTMLDTPGPYLLDVICPHQEHVLPMIPSGGTFNDVITEGDGRIKY | soluble
12 | MGSDKIHHHHHHMHMQSPIQRRKSRQIHVGHVPVGGDAPIAVQSMTNTDTLDVDATVAQIRQLEAAGADIVRVSVPTMDAAEAFGQIKRQVSVPLVADIHFDYKIALRVAELGVDCLRINPGNIGREDRVRAVVDAARHHGIPIRIGVNAGSLEKDLQKKYGEPTPEALVESAMRHIEHLDRLDFQDFKVSVKASDVFMAVAAYRQLAQRIDQPLHLGITEAGGLRSGTVKSSIGLGLLLMEGIGDTIRVSLAADPVEEIKVGYDMLKSLRLRSKGINFIACPSCSRQNFDVIGTMNALEERLDDIMTPLDVSVIGCVVNGPGEAKESDIGLTGGDPANLVYIDGKPASKLRNDHLVDDLEALIRDKVREKEARERDTIAREA | not soluble
13 | GSHMVNIIQKFIPVGANNRPGYAMKPKYITVHNTANTAVGADAAAHARYLKNPDTTTSWHFTVDDKEIYQHLPLNENGWHAGDGNGSGNRASIGIEICENADGDFAKATANAQWLIKTLMAEHNISLANVVPHKYWSGKECPRKLLDKWDSFKAGIG | soluble
14 | MTLAEAADAINFGLAGRVVLVTGGVRGVGAGISSVFAEQGATVITCARRAVDGQPYEFHRCDIRDEDSVKRLVGEIGERHGRLDMLVNNAGGSPYALAAEATHNFHRKIVELNVLAPLLVSQHANVLMQAQPNGGSIVNICSVSGRRPTPGTAAYGAAKAGLENLTTTLAVEWAPKVRVNAVVVGMVETERSELFYGDAESIARVAATVPLGRLARPADIGWAAAFLASDAASYISGATLEVHGGGEPPPYLGASSANK | soluble
15 | VSELSVATGAVSTASSSIPMPAGVNPADLAAELAAVVTESVDEDYLLYECDGQWVLAAGVQAMVELDSDELRVIRDGVTRRQQWSGRPGAALGEAVDRLLLETDQAFGWVAFEFGVHRYGLQQRLAPHTPLARVFSPRTRIMVSEKEIRLFDAGIRHREAIDRLLATGVREVPQSRSVDVSDDPSGFRRRVAVAVDEIAAGRYHKVILSRCVEVPFAIDFPLTYRLGRRHNTPVRSFLLQLGGIRALGYSPELVTAVRADGVVITEPLAGTRALGRGPAIDRLARDDLESNSKEIVEHAISVRSSLEEITDIAEPGSAAVIDFMTVRERGSVQHLGSTIRARLDPSSDRMAALEALFPAVTASGIPKAAGVEAIFRLDECPRGLYSGAVVMLSADGGLDAALTLRAAYQVGGRTWLRAGAGIIEESEPEREFEETCEKLSTLTPYLVARQ | soluble
16 | MGSSHHHHHHGKTIFVIVPTNEEQVAFLEALAKQDELNFDWQNPPTEPGQPVVILIPSDMVEWFLEMLKAKGIPFTVYVEEGGSENLYFQGGGGGGRTGFNTAYSRCTYLVMMGEYKQLLEPGTFPSNDRLPPHLRLDKLSYLDLRDTEIALPPVIDVSLSNRDQVRQLEGQLPSTERSDLHVHFGPIKSQTIIMTPSSNERYVRRRLGLSEKDRKNLEAESQQAFAQARS | soluble
17 | MYFVDRTAVVLKPTARFLEWLKSTDENMPDLTIEQLRANCSVFLVPQFDEPEAVVSYFDERYRQIFEAELAGWDIDKDKWPQDMGLKAFWEFFDIEIHDIVLNMEEAELNITPVFDNMM | soluble
18 | GPGSMEDPVRCECQKHAQDDGYSQGELLPLTAFRQVEKRYKLYRYDRRTSRRLQVPETDFSDVVDFRNLEANTAANLACISTRECHEDDRLVKCCTFAGVPGMEVFPNFLTDAEQQEFCRAALLEYGDSRRHPNHLSTHASEPRETTRYEPPMRWATVGFSYQWSSKSYCKEKYSHFPRRLRKCVERIARLCNVSQPYEPQTSIVNYFPVGAMMMAHQDVSEEVLQQPLISISLGCSCVFLMGTESRDDTPCAFWLRSGDVIVVSGASRTAYHGVPRIMDDCPQYLCPQNETEEEEGEFYWREQMRHLRVNINVRQVYPDRCEFLNE | not soluble
